Measurements published in patent US20150118238A1.

Biological target: RON on RON-transfected NIH 3T3 cells (UniProt Q04912)
Assay: IHC on FFPE RON-transfected NIH3T3 cells, Aperio Positive Pixel Count

Substance: EP1132Y antibody (Anti-RON)
- Relative Positive Pixel Intensity Score: 221
